The source of these data is patent US20070092518A1 (published 2007).

Some results are limits rather than exact numbers.

The labels stand for the following.
B1: SEQ ID NO 184 (Fab, V domains shown)
VH: EVQLVESGGGLVQPGGSLRLSCAASQFIFSNHYMNWVRQAPGKGLEWIGEIRSKSINSATHYAESVKGRFIISRDGNGTDLYLEMNSLKTEDTAEYYCARNYYGSTYDYWGQGTLVTVS
VL: EIVLTQSPDFQSVTPKEKVTITCRASQFVGSSIHWYQQKPDQSPKLLIKYASESMSGVPSRFSGSGSGTDFTFTISSLEAEDAATYYCQQSHSWPFTFGPGTKVDIK
notes: Fab, E. coli lysate
B2: SEQ ID NO 71 (Fab, V domains shown)
VH: EVQLTESGGGLVQPGGSLRLSCRASGSTFSNHWMNWVRQAPGKGLEWIGEIRSKSIYGATSYAESVKGRFIISRDGNKTSLTLEMNSLKTEDTAEYYCARNYYGSTPDYWGQGTLVTVS
VL: EIVLTQSPDFQSVTPKEKVTITCRASQFVGSSIHWYQQKPDQSPKLLIKYASESMSGVPSRFSGSGSGTDFTFTISSLEAEDAATYYCQQSHSWPFTFGPGTKVDIK
notes: Fab, E. coli lysate
B3: SEQ ID NO 187 (Fab, V domains shown)
VH: EVQLTESGGGLVQPGGSLRLSCAASGFTFSNHYMNWVRQAPGKGLEWIGEIRSKSSYGATSYAESVKGRFIISRDGNGTDLYLEMNSLKTEDTAEYYCAQNYYGSTYDYWGQGTLVTVS
VL: EIVLTQSPDFQSVTPKEKVTITCRASQFVGSSIHWYQQKPDQSPKLLIKYASESMSGVPSRFSGSGSGTDFTFTISSLEAEDAATYYCQQSHSWPFTFGPGTKVDIK
notes: Fab, E. coli lysate
B4: SEQ ID NO 189 (Fab, V domains shown)
VH: EVQLTESGGGLVQPGGSLRLSCAASQFTFSNHWMNWVRQAPGKGLEWIGEIRSKSIYSATHYAESVKGRFIISRDDNGTSLTLEMNSLKTEDTAEYYCARNYYGSTPDYWGQGTLVTVS
VL: EIVLTQSPDFQSVTPKEKVTITCRASQFVGSSIHWYQQKPDQSPKLLIKYASESMSGVPSRFSGSGSGTDFTFTISSLEAEDAATYYCQQSHSWPFTFGPGTKVDIK
notes: Fab, E. coli lysate
B5: SEQ ID NO 190 (Fab, V domains shown)
VH: EVQLVESGGGLVQPGGSLRLSCRASGFIFSNHWMNWVRQAPGKGLEWIGEIRSKSINSATSYAESVKGRFIISRDGNKTDLTLEMNSLKTEDTAEYYCARNYYGSTYDYWGQGTLVTVS
VL: EIVLTQSPDFQSVTPKEKVTITCRASQFVGSSIHWYQQKPDQSPKLLIKYASESMSGVPSRFSGSGSGTDFTFTISSLEAEDAATYYCQQSHSWPFTFGPGTKVDIK
notes: Fab, E. coli lysate
B6: SEQ ID NO 186 (Fab, V domains shown)
VH: EVQLTESGGGLVQPGGSLRLSCAASGSTFSNHYMNWVRQAPGKGLEWIGEIRSKSIYSATSYAESVKGRFIISRDDNGNSLTLEMNSLKTEDTAEYYCARNYYGSTPDYWGQGTLVTVS
VL: EIVLTQSPDFQSVTPKEKVTITCRASQFVGSSIHWYQQKPDQSPKLLIKYASESMSGVPSRFSGSGSGTDFTFTISSLEAEDAATYYCQQSHSWPFTFGPGTKVDIK
notes: Fab, E. coli lysate
B7: SEQ ID NO 188 (Fab, V domains shown)
VH: EVQLVESGGGLVQPGGSLRLSCAASGFIFSNHYMNWVRQAPGKGLEWIGEIRSKSIYGATSYAESVKGRFIISRDDNKNDLYLEMNSLKTEDTAEYYCAQNYYGSTYDYWGQGTLVTVS
VL: EIVLTQSPDFQSVTPKEKVTITCRASQFVGSSIHWYQQKPDQSPKLLIKYASESMSGVPSRFSGSGSGTDFTFTISSLEAEDAATYYCQQSHSWPFTFGPGTKVDIK
notes: Fab, E. coli lysate
B8: TNFα antibody C7 (full-length antibody) (antibody, V domains shown)
VH: EVQLVESGGGLVQPGGSLRLSCAASGFIFSNHWMNWVRQAPGKGLEWIGEIRSKSINSATHYAESVKGRFIISRDDNKNSLYLEMNSLKTEDTAEYYCARNYYGSTYDYWGQGTLVTVS
VL: EIVLTQSPDFQSVTPKEKVTITCRASQFVGSSIHWYQQKPDQSPKLLIKYASESMSGVPSRFSGSGSGTDFTFTISSLEAEDAATYYCQQSHSWPFTFGPGTKVDIK
notes: Variable regions subcloned into a mammalian construct with infliximab constant region (IgG1 kappa)

The first experiment deals with T1, human tumor necrosis factor-α (rHuTNF-alpha, Biosource) (human, UniProt P01375 77-233).
T1 construct: Bought recombinant protein coated on ELISA plates; The TNFα of the Biacore assay is not described further; also called TNFα; human TNFα
T1 sequence (P01375 77-233 limits assumed): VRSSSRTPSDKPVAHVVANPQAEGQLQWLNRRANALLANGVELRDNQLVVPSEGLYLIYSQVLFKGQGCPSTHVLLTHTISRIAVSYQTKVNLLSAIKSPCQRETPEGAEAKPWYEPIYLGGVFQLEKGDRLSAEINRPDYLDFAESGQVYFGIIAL
The experiment in a line: solid-phase ELISA, Fab lysate on coated rHuTNF-alpha. Put shortly:
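E. coli lysates expressing His-tagged Fab (pTrcHis2A) were incubated 2 h at RT on wells coated with 1 μg/ml rHuTNF-α and blocked with BSA. Bound Fab was detected with biotinylated anti-human kappa plus penta-His conjugates, then streptavidin-POD and TMB. Absorbance was read at 450 nm.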
On the technique in general: An ELISA detects its analyte on a solid surface through an enzyme-linked reagent.
With B1, the binding result was “binds”. On to B2, for which the binding result was “binds”. The same measure, in the same setting: next, B3: “binds”. Consider B4, for which the binding result is recorded as “binds”. As to B5, the binding result is recorded as “binds”. In the case of B6, the binding result was “binds”.

As to B7, the binding result was “binds”.

A further experiment has as its target T1, human tumor necrosis factor-α …. The experiment is described as follows: Biacore, against infliximab.
B8: the “fold higher binding affinity than infliximab” value is over 2 fold.

A further experiment has the same target. The experiment is described as follows: Biacore. Background: In SPR one partner is held on a chip, and binding of the other changes the refractive index at the surface.
Usually Kd stands for the free concentration of one partner at which half of the binding sites on the other are occupied at equilibrium, for simple one-to-one binding. In turn, B8 came in with a Kd of 0.07 nM.
